Positions count from the first letter of the chain named. Names may count otherwise.
B1: feline IgG1a mutant ID No. 265: Q311W, D312P, L314K, S434Y (antibody, part only; not given: Variable domains, not shown: another chain or arm of the molecule)
constant: ASTTAPSVFPLAPSCGTTSGATVALACLVLGYFPEPVTVSWNSGALTSGVHTFPAVLQASGLYSLSSMVTVPSSRWLSDTFTCNVAHPPSNTKVDKTVRKTDHPPGPKPCDCPKCPPPEMLGGPSIFIFPPKPKDTLSISRTPEVTCLVVDLGPDDSDVQITWFVDNTQVYTAKTSPREEQFNSTYRVVSVLPILHWPWKKGKEFKCKVNSKSLPSPIERTISKAKGQPHEPQVYVLPPAQEELSRNKVSVTCLIKSFHPPDIAVEWEITGQPEPENNYRTTPPQLDSDGTYFVYSKLSVDRSHWQRGNTYTCSVSHEALHYHHTQKSLTQSPGK
B2: feline IgG1a mutant ID No. 255: S428M, S434P (antibody, part only; not given: Variable domains, not shown: another chain or arm of the molecule)
constant: B1 constant with W197Q, P198D, K200L, S316M, Y322P
B3: feline IgG1a mutant ID No. 286: S252Y, S428Y, D312P, L314K (antibody, part only; not given: Variable domains, not shown: another chain or arm of the molecule)
constant: B1 constant with S138Y, W197Q, S316Y, Y322S
B4: feline IgG1a mutant ID No. 284: S252Y, Q311W, D312P, S434Y (antibody, part only; not given: Variable domains, not shown: another chain or arm of the molecule)
constant: B1 constant with S138Y, K200L
B5: feline IgG1a mutant ID No. 275: S252R, S434R (antibody, part only; not given: Variable domains, not shown: another chain or arm of the molecule)
constant: B1 constant with S138R, W197Q, P198D, K200L, Y322R
B6: feline IgG1a mutant ID No. 264: D312P, L314K, S434Y (antibody, part only; not given: Variable domains, not shown: another chain or arm of the molecule)
constant: B1 constant with W197Q
B7: feline IgG1a mutant ID No. 253: S428M, S434L (antibody, part only; not given: Variable domains, not shown: another chain or arm of the molecule)
constant: B1 constant with W197Q, P198D, K200L, S316M, Y322L
B8: feline IgG1a S252Y/S434F (antibody, part only; not given: Variable domains, not shown: another chain or arm of the molecule)
constant: B1 constant with S138Y, W197Q, P198D, K200L, Y322F
B9: feline IgG1a D249E (antibody, part only; not given: Variable domains, not shown: another chain or arm of the molecule)
constant: B1 constant with D135E, W197Q, P198D, K200L, Y322S
B10: feline IgG1a S434C (antibody, part only; not given: Variable domains, not shown: another chain or arm of the molecule)
constant: B1 constant with W197Q, P198D, K200L, Y322C
B11: feline IgG1a A378N (antibody, part only; not given: variable domains and light chain, not shown: another chain or arm of the molecule)
constant: B1 constant with W197Q, P198D, K200L, A264N, Y322S
B12: feline IgG1a P247V (antibody, part only; not given: Variable domains, not shown: another chain or arm of the molecule)
constant: B1 constant with P133V, W197Q, P198D, K200L, Y322S
B13: feline IgG1a T250Q (antibody, part only; not given: Variable domains, not shown: another chain or arm of the molecule)
constant: B1 constant with T136Q, W197Q, P198D, K200L, Y322S
B14: feline IgG1a A378P (antibody, part only; not given: Variable domains, not shown: another chain or arm of the molecule)
constant: B1 constant with W197Q, P198D, K200L, A264P, Y322S
B15: feline IgG1a Q311L (antibody, part only; not given: Variable domains, not shown: another chain or arm of the molecule)
constant: B1 constant with W197L, P198D, K200L, Y322S
B16: feline IgG1a T250I (antibody, part only; not given: Variable domains, not shown: another chain or arm of the molecule)
constant: B1 constant with T136I, W197Q, P198D, K200L, Y322S
B17: feline IgG1a H436G (antibody, part only; not given: Variable domains, not shown: another chain or arm of the molecule)
constant: B1 constant with W197Q, P198D, K200L, Y322S, H324G
B18: feline IgG1a A431Q (antibody, part only; not given: Variable domains, not shown: another chain or arm of the molecule)
constant: B1 constant with W197Q, P198D, K200L, A319Q, Y322S
B19: feline IgG1a P247I (antibody, part only; not given: Variable domains, not shown: another chain or arm of the molecule)
constant: B1 constant with P133I, W197Q, P198D, K200L, Y322S
B20: feline IgG1a E430Q (antibody, part only; not given: Variable domains, not shown: another chain or arm of the molecule)
constant: B1 constant with W197Q, P198D, K200L, E318Q, Y322S
B21: feline IgG1a A378D (antibody, part only; not given: Variable domains, not shown: another chain or arm of the molecule)
constant: B1 constant with W197Q, P198D, K200L, A264D, Y322S
B22: feline IgG1a A378K (antibody, part only; not given: Variable domains, not shown: another chain or arm of the molecule)
constant: B1 constant with W197Q, P198D, K200L, A264K, Y322S
B23: feline IgG1a D401R (antibody, part only; not given: Variable domains, not shown: another chain or arm of the molecule)
constant: B1 constant with W197Q, P198D, K200L, D289R, Y322S
B24: feline IgG1a Y285A (antibody, part only; not given: Variable domains, not shown: another chain or arm of the molecule)
constant: B1 constant with Y171A, W197Q, P198D, K200L, Y322S
B25: feline IgG1a A378C (antibody, part only; not given: Variable domains, not shown: another chain or arm of the molecule)
constant: B1 constant with W197Q, P198D, K200L, A264C, Y322S
B26: feline IgG1a S252Y/D312P (antibody, part only; not given: Variable domains, not shown: another chain or arm of the molecule; small tags and cut ends)
constant: B1 constant with S138Y, W197Q, K200L, Y322S
B27: feline IgG1a T250V (antibody, part only; not given: Variable domains, not shown: another chain or arm of the molecule)
constant: B1 constant with T136V, W197Q, P198D, K200L, Y322S
B28: feline IgG1a H436K (antibody, part only; not given: Variable domains, not shown: another chain or arm of the molecule)
constant: B1 constant with W197Q, P198D, K200L, Y322S, H324K
B29: feline IgG1a T250E (antibody, part only; not given: Variable domains, not shown: another chain or arm of the molecule)
constant: B1 constant with T136E, W197Q, P198D, K200L, Y322S
B30: feline IgG1a T250S (antibody, part only; not given: Variable domains, not shown: another chain or arm of the molecule)
constant: B1 constant with T136S, W197Q, P198D, K200L, Y322S
B31: feline IgG1a A378M (antibody, part only; not given: Variable domains, not shown: another chain or arm of the molecule)
constant: B1 constant with W197Q, P198D, K200L, A264M, Y322S
B32: feline IgG1a T437R (antibody, part only; not given: variable domains and light chain, not shown: another chain or arm of the molecule)
constant: B1 constant with W197Q, P198D, K200L, Y322S, T325R
B33: feline IgG1a H436M (antibody, part only; not given: Variable domains, not shown: another chain or arm of the molecule)
constant: B1 constant with W197Q, P198D, K200L, Y322S, H324M
B34: feline IgG1a A378E (antibody, part only; not given: Variable domains, not shown: another chain or arm of the molecule)
constant: B1 constant with W197Q, P198D, K200L, A264E, Y322S
B35: feline IgG1a A378G (antibody, part only; not given: Variable domains, not shown: another chain or arm of the molecule)
constant: B1 constant with W197Q, P198D, K200L, A264G, Y322S
B36: feline IgG1a A378H (antibody, part only; not given: Variable domains, not shown: another chain or arm of the molecule)
constant: B1 constant with W197Q, P198D, K200L, A264H, Y322S
B37: feline IgG1a D312H (antibody, part only; not given: Variable domains, not shown: another chain or arm of the molecule; small tags and cut ends)
constant: B1 constant with W197Q, P198H, K200L, Y322S
B38: feline IgG1a S434A (antibody, part only; not given: Variable domains, not shown: another chain or arm of the molecule)
constant: B1 constant with W197Q, P198D, K200L, Y322A
B39: feline IgG1a S434D (antibody, part only; not given: Variable domains, not shown: another chain or arm of the molecule)
constant: B1 constant with W197Q, P198D, K200L, Y322D
B40: feline IgG1a A378F (antibody, part only; not given: Variable domains, not shown: another chain or arm of the molecule)
constant: B1 constant with W197Q, P198D, K200L, A264F, Y322S
B41: feline IgG1a D249S (antibody, part only; not given: Variable domains, not shown: another chain or arm of the molecule)
constant: B1 constant with D135S, W197Q, P198D, K200L, Y322S
B42: feline IgG1a D249A (antibody, part only; not given: Variable domains, not shown: another chain or arm of the molecule)
constant: B1 constant with D135A, W197Q, P198D, K200L, Y322S
B43: feline IgG1a L432S (antibody, part only; not given: Variable domains, not shown: another chain or arm of the molecule)
constant: B1 constant with W197Q, P198D, K200L, L320S, Y322S
B44: feline IgG1a A378L (antibody, part only; not given: Variable domains, not shown: another chain or arm of the molecule)
constant: B1 constant with W197Q, P198D, K200L, A264L, Y322S
B45: feline IgG1a A431V (antibody, part only; not given: Variable domains, not shown: another chain or arm of the molecule)
constant: B1 constant with W197Q, P198D, K200L, A319V, Y322S
B46: feline IgG1a T437A (antibody, part only; not given: Variable domains, not shown: another chain or arm of the molecule)
constant: B1 constant with W197Q, P198D, K200L, Y322S, T325A
B47: feline IgG1a H436R (antibody, part only; not given: Variable domains, not shown: another chain or arm of the molecule)
constant: B1 constant with W197Q, P198D, K200L, Y322S, H324R
B48: feline IgG1a A378I (antibody, part only; not given: Variable domains, not shown: another chain or arm of the molecule)
constant: B1 constant with W197Q, P198D, K200L, A264I, Y322S
B49: feline IgG1a S434E (antibody, part only; not given: Variable domains, not shown: another chain or arm of the molecule)
constant: B1 constant with W197Q, P198D, K200L, Y322E
B50: feline IgG1a S252Y/S434F/Q311W (antibody, part only; not given: Variable domains, not shown: another chain or arm of the molecule)
constant: B1 constant with S138Y, P198D, K200L, Y322F
B51: feline IgG1a S252Y/S434Y (antibody, part only; not given: Variable domains, not shown: another chain or arm of the molecule)
constant: B1 constant with S138Y, W197Q, P198D, K200L
B52: feline IgG1a E430I (antibody, part only; not given: Variable domains, not shown: another chain or arm of the molecule)
constant: B1 constant with W197Q, P198D, K200L, E318I, Y322S
B53: feline IgG1a P247L (antibody, part only; not given: Variable domains, not shown: another chain or arm of the molecule)
constant: B1 constant with P133L, W197Q, P198D, K200L, Y322S
B54: feline IgG1a D399T (antibody, part only; not given: Variable domains, not shown: another chain or arm of the molecule)
constant: B1 constant with W197Q, P198D, K200L, D287T, Y322S
B55: feline IgG1a A431R (antibody, part only; not given: Variable domains, not shown: another chain or arm of the molecule)
constant: B1 constant with W197Q, P198D, K200L, A319R, Y322S
B56: feline IgG1a T256S (antibody, part only; not given: Variable domains, not shown: another chain or arm of the molecule)
constant: B1 constant with T142S, W197Q, P198D, K200L, Y322S

Molecular target: feline FcRn complex (FcRn-α subunit and β-microglobulin) (feline)
Experiment: SPR (Biacore), FcRn on SA chip, pH 6

In order of rising Kd:
1. B4  7.27 nM
2. B2  7.53 nM
3. B1  7.95 nM
4. B7  8 nM
5. feline IgG1a mutant ID No. 263: S252Y, S254T, T256E (antibody)  14 nM
6. feline IgG1a mutant ID No. 259: S428L (antibody)  24.5 nM
7. feline IgG1a mutant ID No. 262: S428L (antibody)  25.4 nM
8. B3  27 nM
9. B6  71.7 nM
10. B5  78.6 nM

Molecular target: feline FcRn complex (FcRn-α subunit and β-microglobulin), biotin labeled (feline)
Experiment: SPR, pH 6

In order of rising Kd:
1. B49  3.35 nM
2. B13  4.35 nM
3. B38  4.49 nM
4. B19  4.51 nM
5. B16  4.66 nM
6. B53  4.72 nM
7. B23  4.77 nM
8. B30  4.94 nM
9. B12  5.21 nM
10. B41  5.24 nM
11. B42  5.41 nM
12. B39  5.66 nM
13. B47  5.69 nM
14. B9  5.84 nM
15. B52  5.89 nM
16. B29  6.07 nM
17. B15  6.38 nM
18. B20  6.58 nM
19. B43  6.58 nM
20. B18  6.64 nM
21. B55  6.73 nM
22. B54  6.75 nM
23. B32  6.85 nM
24. B27  6.87 nM
25. B28  6.91 nM
26. B45  7.08 nM
27. B37  7.33 nM
28. B24  8.01 nM
29. B33  8.25 nM
30. B46  8.79 nM
31. B26  10.5 nM
32. B17  10.9 nM
33. B10  11.8 nM
34. B31  26.6 nM
35. B11  28.6 nM
36. B44  34.7 nM
37. B36  49.3 nM
38. B48  58.3 nM
39. B34  63.6 nM
40. B14  68.4 nM
41. B40  74.8 nM
42. B25  77.3 nM
43. B35  88.3 nM
44. B21  100 nM
45. B22  104 nM
46. B51  116 nM
47. B50  164 nM
48. B8  1970 nM
49. B56  2140 nM

From patent US20240400708A1
